± gives the standard deviation of the averaged measurements.
test system: ATP; assay: switch fluorescence ratio, 500 uM ATP over buffer (Cy3 cluster intensity, sum of 5 cycles each) (fold (ratio)); higher = stronger signal-on switching upon ATP binding; sequences stand for … in TCGTCGGCAGCGTCAGATGTGTATAAGAGACAGTTTTTTTTTTTTTTTTTTTTTTTTT…TC; conditions: aptamer strand: ATP DNA aptamer (quencher-CACCTGGGGGAGTATTGCGGAGGAAGG + anchor), 100 nM annealed; ATP concentration: 500 uM
How it was run: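 Switching-strand clusters labelled with Cy3 on a modified Illumina MiSeq flow-cell were annealed to 100 nM quencher-labelled ATP aptamer, imaged in selection buffer, and re-imaged after 15 min with 500 uM ATP at 22 °C. This was done over five cycles with NaOH stripping and re-annealing in between. The fluorescence ratio is summed target-cycle over summed buffer-cycle Cy3 intensity per cluster, averaged per switch-domain sequence, excluding clusters outside 100-1000 RFU.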
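Note: ATP exposure 15 min at 22 °C before imaging.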

Row | Sequence | switch fluorescence ratio
1 | GGCAGCAAGG | 1.084 ± 0.0029
2 | TAGGTGCAGG | 1.08 ± 0.068
3 | TCCCCGTCGA | 1.88 ± 1.2
4 | TTTCACTTGG | 1.03 ± 0.027
5 | AATTTGTCCA | 0.98 ± 0.015
6 | AAGCCGGCTA | 1.03 ± 0.023
7 | TTGAGGGGA | 0.982 ± 0.021
8 | ATTGGTTGTT | 1.01 ± 0.036
9 | GGATTAGGGG | 0.998 ± 0.022
10 | GTCGAATGGG | 1 ± 0.02
11 | TTCAATAGAA | 0.998 ± 0.0029
12 | TGCGGGGGAG | 0.996 ± 0.02
13 | TTAATGTTTG | 0.997 ± 0.042
14 | TAACTATTT | 1 ± 0.046
15 | GGGCGTCGTC | 0.993 ± 0.052
16 | TGATCGTCGG | 1.02 ± 0.013
17 | TTGGGCAATA | 1.77 ± 0.35
18 | GGGACGGGC | 0.933 ± 0.078
19 | TTTGTGTAGT | 0.986 ± 0.065
20 | AGTTGTGTGG | 1.02 ± 0.023
21 | GGAGCAAGGG | 3.37 ± 1.5
22 | GGCGCCGGAA | 0.98 ± 0.031
23 | TTTTTAGGCG | 0.978 ± 0.028

Row | Sequence | switch fluorescence ratio
24 | GCAGAATATT | 0.998 ± 0.029
25 | CAAATGGGCC | 0.993 ± 0.019
26 | GCGGGGGTTG | 0.978 ± 0.039
27 | AGTTAGCTT | 1.02 ± 0.072
28 | TTTGGCAGGT | 1.03 ± 0.026
29 | ATGTGCTCTC | 0.9817 ± 0.0082
30 | CTAACCGGTA | 1.006 ± 0.0063
31 | TGCGTGTGGT | 1.036 ± 0.0046
32 | TCTACTGGGC | 1.05 ± 0.1
33 | TTCAAACATC | 1 ± 0.015
34 | CAGGTATAAG | 1.01 ± 0.061
35 | GGTATAATGG | 0.971 ± 0.03
36 | GGTTCGAGAC | 1.01 ± 0.025
37 | TTCGGCTGGG | 0.98 ± 0.034
38 | ATTGTACAGT | 1.02 ± 0.025
39 | TTGCATTTTT | 1.01 ± 0.034
40 | TTCGTGTGCC | 0.94 ± 0.011
41 | AGCGACGGAG | 0.966 ± 0.024
42 | CCGCAGCGGA | 2.12 ± 0.27
43 | ATGTTTCAGT | 0.9982 ± 0.0021
44 | CCACCTGGCG | 1.29 ± 0.017
45 | TCAACCAAAA | 1.02 ± 0.011
46 | GGTGGGGATT | 1.07 ± 0.17

Row | Sequence | switch fluorescence ratio
47 | GACTCTTGCG | 0.964 ± 0.029
48 | CAATAAAGGT | 1.08 ± 0.18
49 | CGTGAAGGCG | 0.952 ± 0.024
50 | TTGGAATTCC | 0.989 ± 0.05
51 | TGAAAAGGTC | 0.982 ± 0.063
52 | CTGTGGGTTT | 1.01 ± 0.026
53 | GATGCGGCGT | 1.04 ± 0.021
54 | GTTCTTGATG | 0.967 ± 0.015
55 | GAGTAATGGG | 1.003 ± 0.0098
56 | ATGGGGTGTG | 1 ± 0.018
57 | TTGAACGGTG | 1.03 ± 0.047
58 | AGGAGAAAAG | 1.22 ± 0.29
59 | GAGGGATAGC | 0.991 ± 0.025
60 | GGAATAGATG | 1.026 ± 0.0015
61 | TGTAGGGCGA | 0.99 ± 0.034
62 | GTAATGATCT | 1.06 ± 0.036
63 | GCTGTGTTTT | 1 ± 0.034
64 | TTTGGGGACA | 1.01 ± 0.019
65 | AGTTTTGAG | 0.9928 ± 0.0097
66 | CGGGCTTTAT | 1.006 ± 0.0073
67 | ACAGGGGAAT | 1.01 ± 0.012
68 | GTTACGGGGG | 1.02 ± 0.031
69 | GGGCAATTAG | 1.15 ± 0.014

Row | Sequence | switch fluorescence ratio
70 | AGAATGGGTT | 1.03 ± 0.029
71 | GGGGAGGACT | 1 ± 0.021
72 | AAGAGCCATC | 0.9527 ± 0.009
73 | TTGTGCAAGG | 1.34 ± 0.47
74 | AGGGGGCTGT | 0.994 ± 0.03
75 | GGAATCCGGG | 0.987 ± 0.037
76 | ACACCCCCGT | 1.67 ± 0.19
77 | GGGGAGTAGC | 0.999 ± 0.03
78 | GATTCTTGAA | 1.01 ± 0.22
79 | TTATTCGGCA | 1.005 ± 0.0036
80 | GGCCGCAGGT | 0.987 ± 0.023
81 | TTTTGGTGCG | 0.986 ± 0.041
82 | CAGCGGGCGT | 0.963 ± 0.01
83 | GTGATTCTTG | 0.9745 ± 0.0022
84 | AAGTTAAGGG | 0.995 ± 0.055
85 | GCGGGCCTGG | 1.01 ± 0.037
86 | GAGGAAAGCA | 0.9815 ± 0.0056
87 | AACTGCAACA | 1.22 ± 0.031
88 | GGGGGGGGGT | 1.01 ± 0.038
89 | TGGGGAGGCT | 1.04 ± 0.055
90 | AAGGAGGGTG | 1.02 ± 0.019
91 | TTGTTCGGCC | 0.992 ± 0.035
92 | CTATAGGAAA | 1.03 ± 0.026

Row | Sequence | switch fluorescence ratio
93 | AGTGTACCGG | 0.997 ± 0.01
94 | ACGACTGTTA | 1.04 ± 0.02
95 | TTGTGAATTA | 0.982 ± 0.022
96 | TTTTGCACGG | 1.04 ± 0.0077
97 | ACATACCGTG | 1.21 ± 0.038
98 | GTTTCCTATT | 0.959 ± 0.013
99 | CAGTATCGCG | 0.989 ± 0.005
100 | GGGTAAAGGG | 1 ± 0.045
101 | TGCTTTATAT | 1.18 ± 0.29
102 | CGTGGGGCAC | 1.01 ± 0.024
103 | AAGTGTTTT | 1.016 ± 0.005
104 | TTGCATGCCG | 0.972 ± 0.036
105 | TTATGGGCAA | 1.1 ± 0.02
106 | GTTTGCGACT | 0.998 ± 0.067
107 | TGGGTTCTAT | 0.9874 ± 0.0077
108 | GGAGTTTGGG | 0.994 ± 0.039
109 | AAATAGTGGG | 0.986 ± 0.026
110 | TAAGCTTAGT | 1.001 ± 0.0065
111 | TGGGTTCTTG | 0.998 ± 0.044
112 | ATAGGGGGTA | 1 ± 0.015
113 | CTTTTTAGGT | 0.998 ± 0.012
114 | ATAGTATATG | 0.9786 ± 0.0088
115 | AGATTTAGAG | 1.011 ± 0.0032

Row | Sequence | switch fluorescence ratio
116 | CTTTTCGGGT | 0.964 ± 0.033
117 | GGTTAAAGGA | 0.95798 ± 0.00066
118 | CAGTCCCACG | 1.021 ± 0.0053
119 | TTACGGGGTT | 0.988 ± 0.035
120 | AGTGTTTAAG | 1.036 ± 0.009
121 | GTTTCAAGAT | 0.994 ± 0.044
122 | GGAAAAGAGC | 0.991 ± 0.049
123 | CAGGATAACT | 1 ± 0.027
124 | TTCGTGATAG | 1.308 ± 0.0028
125 | GGGGGATCAG | 0.992 ± 0.045
126 | GCCGGTTTTG | 1.01 ± 0.017
127 | TTATACCGTT | 0.999 ± 0.01
128 | AGCTTTCGCG | 0.99 ± 0.03
129 | TTGAAGCGGA | 1.03 ± 0.03
130 | GTCAGTGTCG | 0.962 ± 0.021
131 | ATATGTGGGA | 1.02 ± 0.033
132 | ACTTAATGTA | 1 ± 0.03
133 | GTTTTACCGC | 1.01 ± 0.018
134 | TCAGTTAATT | 1.008 ± 0.0099
135 | CGGGAGGGGG | 1.06 ± 0.07
136 | GGGTATTCTG | 0.98 ± 0.053
137 | GCATGTCGGA | 1.01 ± 0.039
138 | TTTTGAGCTG | 1.02 ± 0.029

Row | Sequence | switch fluorescence ratio
139 | TGTAGGAGGA | 1.01 ± 0.017
140 | GACTGTTAAG | 1.02 ± 0.017
141 | TTAGTAAACA | 1.01 ± 0.049
142 | GAATATATGT | 1.04 ± 0.028
143 | TTTATTGAGC | 0.989 ± 0.039
144 | TTTTTTTCGT | 1.07 ± 0.21
145 | CCGGGATTTT | 1.09 ± 0.13
146 | GTTTTAAGGC | 1.01 ± 0.058
147 | GTGTTAAAGG | 0.992 ± 0.013
148 | ATCGCTTAGG | 1 ± 0.012
149 | TTGAAGTTAG | 0.99 ± 0.02
150 | CGGTTAGGAA | 1.01 ± 0.025
151 | TTAAGCCAGG | 1.16 ± 0.14
152 | TTAGCGCTTT | 0.9853 ± 0.0082
153 | AGGAGGGCTC | 1.01 ± 0.11
154 | GGTTTGGTTG | 1.003 ± 0.008
155 | GGGGGTAACT | 1 ± 0.034
156 | AGTAACCTTG | 1.02 ± 0.022
157 | TCCCTTTCGA | 1.21 ± 0.063
